From patent US20190183976A1

Biological target: T1, CXCR4-VC (human), P61073
T1 chain: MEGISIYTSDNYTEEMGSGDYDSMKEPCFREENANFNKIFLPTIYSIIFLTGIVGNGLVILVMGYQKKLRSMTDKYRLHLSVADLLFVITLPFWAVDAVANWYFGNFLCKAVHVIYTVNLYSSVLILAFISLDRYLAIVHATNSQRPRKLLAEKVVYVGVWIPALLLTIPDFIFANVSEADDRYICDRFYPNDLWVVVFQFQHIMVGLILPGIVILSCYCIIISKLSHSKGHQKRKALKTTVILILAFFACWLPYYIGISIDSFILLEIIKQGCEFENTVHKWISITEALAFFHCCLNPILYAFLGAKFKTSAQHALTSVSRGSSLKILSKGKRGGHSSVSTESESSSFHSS
Assay: BiFC, U-2 OS cells; score=(positive cells/total cells)x100
Conditions: remark: other sources report otherwise

B1: CXCR4-VN, P61073 1-352 (receptor, human, UniProt P61073 1-352, looked up, not shown: small tags and cut ends)
chain: T1 chain
B1 showed a BiFC score of 9.9.
